Experimental data as given in patent US20230190642A1, “GROWTH FACTOR OTIC FORMULATIONS” (OTONOMY, INC., priority 2018, published 2023).

Key:
[1] = test system: Spiral ganglion neurons (SGNs); test: Survival of dissociated spiral ganglion neurons (Example C); assay type: cell-based, rat; details: 1 µM; compared to vehicle-only control, 0.01% DMSO; FIG. 6C
Protocol: Spiral ganglion neurons (SGNs) were harvested from P1-P3 rates, dissociated, and cultured in 96-well plates. The SGNs were treated with neurotrophins and/or antibodies at various concentrations. After about 24 hours, media was exchanged to serum-free media and the neurotrophins and/or antibodies were replenished. Cells were cultured for an additional 48-72 hours before being fixed using 4% paraformaldehyde (PFA) and stained using 4′,6-diamidino-2-phenylindole (DAPI). […] Surviving neurons were identified as cells with intact soma and at least one neurite.

tinnitus = details: administered by IV; cited from earlier work
[2] = test system: Méniére’s disease symptoms; details: infusion into the scala tympani; cited from earlier work
SGNs = test: SGN complexity, dissociated SGNs (Example D); assay type: cell-based, rat; details: compared to IgG-treated control, FIG. 7D
Description: SGNs were immunostained, imaged, and batch analyzed with PerkinElmer Harmony 4.6 software. Changes in the complexities of SGNs upon treatment with various agents were examined. […] All of the images in a single well were stitched together and analyzed. SGN somas are shown in the upper right panel and SGN neurites are shown in the lower left panel. As shown in the lower right panel, each neurite tree is assigned to a single cell for analysis. Depending on the stitching, occasionally neurites will not meet the criteria due to gaps that exceed a user-defined threshold.

noise exposed adult rats = test: Noise-induced hearing loss / synaptopathy in rats (Example A1); assay type: in vivo, rat
Protocol: Poloxamer 407 gel at 16% was prepared using the cold method. In brief, a 16% w/w stock solution of poloxamer 407 was prepared by slowly adding it to a cold buffer solution (10 mM PBS, pH 7.4). Sterilization was achieved by filtration. Human recombinant BDNF was suspended with an appropriate amount of poloxamer 407 solution to reach a range of concentration of 0.05 to 5.0 mg/ml BDNF.
Male rats (Charles River) approximately 10-11 months of age served as subjects (N = 6 per group). Prior to any procedures, animals were anesthetized using a combination of xylazine (10 mg/kg) and ketamine (90 mg/kg) for up to one hour via the intraperitoneal route. If needed, an intraoperative booster was administered intraperitoneally representing one-tenth of the original dose. […]
Auditory Brainstem Response (ABR) assessment (wave 1) - During the procedure, additional anesthetic (xylazine and ketamine) was administered if needed to maintain the depth of anesthesia sufficient to insure immobilization and relaxation. ABRs were recorded in an electrically and acoustically shielded chamber, one ear at a time. […] Acoustic calibration was performed with TDT software (SigCal) and thresholds were expressed as dB SPL in conditions identical to that of threshold recordings in animals. […] Wave 1 was quantified by averaging the wave 1 amplitude from intensities ranging between 60-80 dB SPL. […]

[3] = test system: noise-induced cochlear synaptopathy; test: Noise-induced cochlear synaptopathy in rats (Example G); assay type: in vivo, rat
Protocol: Animals: Male Sprague-Dawley rats (5-6 months of age) were used for efficacy studies and females (2-3 months) were used for pharmacokinetic studies.
Formulations: Human recombinant BDNF was suspended in the thermoreversible polymer Poloxamer 407 (16%) to reach a range of BDNF concentrations.
Intratympanic (IT) injection: Formulations were administered under anesthesia as a single IT injection (20 µl through the tympanic membrane into the middle ear, targeting the round window membrane (RWM).
Noise-induced cochlear synaptopathy: Rats (n= 44 per treatment group) received a single acoustic trauma (105 dB SPL, 8-16 kHz, 1h) under anesthesia. 24 hours later (Day 1) animals received a single bilateral IT injection of the treatment regimens. Auditory function (ABR and ABR wave 1 amplitude) was monitored at day 1 and then every 7 days for 28 days. At termination (Day 28), cochleae were collected and assessed for evidence of cochlear synaptopathy (IHC synaptic puncta counts).
Immunohistochemistry: Dissected cochleae were immunostained with antibodies against presynaptic (CtBP2) and postsynaptic (GluR2) proteins and MyosinVIIa to label hair cells. Cochleae were then frequency mapped and high-magnification images were obtained with a Zeiss LSM-880 confocal microscope and imaged at an interval of 0.35 µm.
Intratympanic BDNF improves Auditory Brainstem Response (ABR) thresholds and wave I amplitudes in adult rats. The Auditory Brainstem Response (ABR) is an objective test that measures hearing sensitivity and can identify abnormalities in the peripheral auditory system and the auditory pathway up through the brainstem. Adult male rats were bilaterally exposed to noise followed by an intratympanic injection of 0.05 mg/ml BDNF in P407 24 hours after noise exposure. ABR recordings were obtained at days 1, 7, 14, and 28.

Molecule: OCCN(CCO)c1ccc(C(c2ccc(Cl)cc2)c2ccc(N(CCO)CCO)cc2)cc1 [LM22b10]
- Survival of SGNs [1]: not improved

Molecule: CCN(CC)CC(=O)Nc1c(C)cccc1C [Lidocaine]
- sufferers in whom the noise associated with tinnitus is reduced or eliminated (tinnitus): 60-80%

Molecule: Cc1ccccc1C(=O)Nc1ccc(C(=O)N2CCCC(N(C)C)c3ccccc32)cc1 (stereo not drawn) [OPC-31260]
- Méniére’s disease symptoms [2]: marked reduction

B1: neurotrophin-3 (protein, UniProt P20783 139-257, looked up)
Neurotrophin-3: YAEHKSHRGEYSVCDSESLWVTDKSSAIDIRGHQVTVLGEIKTGNSPVKQYFYETRCKEARPVKNGCRGIDDKHWNSQCKTSQTYVRALTSENNKLVGWRWIRIDTSCVCALSRKIGRT
notes: neurotrophin; Trk agonist on spiral ganglion neurons
- total neurite length, total number of extremities, segments, and nodes per cell (differences) (SGNs): not statistically significant

B2: brain-derived neurotrophic factor (protein, UniProt P23560 19-247, looked up)
Neurotrophic factor BDNF …: APMKEANIRGQGGLAYPGVRTHGTLESVNGPKAGSRGLTSLADTFEHVIEELLDEDQKVRPNEENNKDADLYTSRVMLSSQVPLEPPLLFLLEEYKNYLDAANMSMRVRRHSDPARRGELSVCDSISEWVTAADKKTAVDMSGGTVTVLEKVPVSKGQLKQYFYETKCNPMGYTKEGCRGIDKRHWNSQCRTTQSYVRALTMDSKKRIGWRFIRIDTSCVCTLTIKRGR
notes: Human recombinant BDNF; neurotrophin, Trk agonist on spiral ganglion neurons
- hearing function (wave I amplitude) (noise exposed adult rats; single intratympanic 0.005% BDNF in Poloxamer 407 24 hrs after noise, compared to vehicle, FIG. 3A): improved hearing function
- number of ribbon synapses per inner hair cell (noise exposed adult rats; single intratympanic 0.005% BDNF in Poloxamer 407, Day 28, compared to vehicle, FIG. 3B): increased
- total neurite length, total number of extremities, segments, and nodes per cell (differences) (SGNs): not statistically significant
- ABR wave I amplitudes ([3]; adult male rats, BDNF or vehicle treatment following noise exposure, across many frequencies, FIG. 12C): Significant improvements
- recovery of initial ABR threshold shifts ([3]; adult male rats, intratympanic 0.05 mg/ml BDNF in P407 24 hours after noise exposure, ABR at days 1, 7, 14, 28, vs P407 vehicle, FIG. 12A): more rapid recovery
- levels of hearing loss ([3]; adult male rats, intratympanic 0.05 mg/ml BDNF in P407 24 hours after noise exposure, vs P407 vehicle): reduced
- synaptic puncta (co-expression of CtBp2 and GluR2) per inner hair cell ([3]; adult rats after noise damage, each frequency region throughout the cochlea, FIG. 13C): increased
- cochlear synaptopathy ([3]; adult rats, intratympanic BDNF): repairs
